Experimental data from patent US20170224836A1 (Novartis, published 2017).
Like-named read-outs stand apart in the source and are kept apart here.

Legend:
cynomolgus CDH6 on cells = target: T1, cynomolgus CDH6 on cells (cynomolgus, UniProt A0A2K5TW62 54-790); assay: FACS on CHO-cynoCDH6 cells
T1 sequence: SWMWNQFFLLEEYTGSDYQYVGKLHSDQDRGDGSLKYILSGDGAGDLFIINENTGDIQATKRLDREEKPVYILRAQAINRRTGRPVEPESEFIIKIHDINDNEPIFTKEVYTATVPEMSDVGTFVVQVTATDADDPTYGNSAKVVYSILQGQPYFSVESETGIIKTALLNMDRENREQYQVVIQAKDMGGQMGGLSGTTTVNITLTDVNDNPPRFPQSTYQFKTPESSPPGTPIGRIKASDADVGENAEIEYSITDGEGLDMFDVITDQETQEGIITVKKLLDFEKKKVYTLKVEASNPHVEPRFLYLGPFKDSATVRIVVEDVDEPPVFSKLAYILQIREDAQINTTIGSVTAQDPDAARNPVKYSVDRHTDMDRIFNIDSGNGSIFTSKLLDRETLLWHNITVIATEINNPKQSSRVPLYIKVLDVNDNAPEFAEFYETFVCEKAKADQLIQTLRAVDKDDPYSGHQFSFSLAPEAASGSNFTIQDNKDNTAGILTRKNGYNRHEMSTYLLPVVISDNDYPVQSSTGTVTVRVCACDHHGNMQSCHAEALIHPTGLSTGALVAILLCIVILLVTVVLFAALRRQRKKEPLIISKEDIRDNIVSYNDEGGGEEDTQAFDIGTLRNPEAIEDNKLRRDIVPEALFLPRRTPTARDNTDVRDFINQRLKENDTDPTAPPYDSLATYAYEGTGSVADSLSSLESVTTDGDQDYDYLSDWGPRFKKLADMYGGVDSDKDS

mouse CDH6 on cells = target: T2, mouse CDH6 on cells (mouse, UniProt P97326 54-790); assay: FACS on CHO-mouseCDH6 cells
T2 sequence (looked up): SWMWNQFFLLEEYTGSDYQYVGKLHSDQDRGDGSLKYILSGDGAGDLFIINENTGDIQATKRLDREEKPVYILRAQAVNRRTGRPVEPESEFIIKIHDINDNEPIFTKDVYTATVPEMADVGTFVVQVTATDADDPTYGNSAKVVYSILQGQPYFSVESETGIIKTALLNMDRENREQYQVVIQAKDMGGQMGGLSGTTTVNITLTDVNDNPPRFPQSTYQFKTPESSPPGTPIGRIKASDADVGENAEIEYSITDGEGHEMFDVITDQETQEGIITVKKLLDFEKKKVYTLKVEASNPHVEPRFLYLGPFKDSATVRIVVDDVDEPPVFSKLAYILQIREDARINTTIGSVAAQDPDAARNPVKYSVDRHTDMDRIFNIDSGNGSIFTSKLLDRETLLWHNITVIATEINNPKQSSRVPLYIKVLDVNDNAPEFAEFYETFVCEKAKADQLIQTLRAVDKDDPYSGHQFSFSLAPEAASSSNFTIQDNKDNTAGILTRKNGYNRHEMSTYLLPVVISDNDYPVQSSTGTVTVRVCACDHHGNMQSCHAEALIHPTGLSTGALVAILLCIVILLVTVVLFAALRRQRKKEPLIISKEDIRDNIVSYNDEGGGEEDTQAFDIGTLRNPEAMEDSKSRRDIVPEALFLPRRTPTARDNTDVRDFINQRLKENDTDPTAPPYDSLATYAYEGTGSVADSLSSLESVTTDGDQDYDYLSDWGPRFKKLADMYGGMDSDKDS

hCDH6aa54-615 APPavi [1] = target: T3, hCDH6aa54-615 APPavi (human, UniProt P55285 54-615); assay: SPR binning
T3 sequence: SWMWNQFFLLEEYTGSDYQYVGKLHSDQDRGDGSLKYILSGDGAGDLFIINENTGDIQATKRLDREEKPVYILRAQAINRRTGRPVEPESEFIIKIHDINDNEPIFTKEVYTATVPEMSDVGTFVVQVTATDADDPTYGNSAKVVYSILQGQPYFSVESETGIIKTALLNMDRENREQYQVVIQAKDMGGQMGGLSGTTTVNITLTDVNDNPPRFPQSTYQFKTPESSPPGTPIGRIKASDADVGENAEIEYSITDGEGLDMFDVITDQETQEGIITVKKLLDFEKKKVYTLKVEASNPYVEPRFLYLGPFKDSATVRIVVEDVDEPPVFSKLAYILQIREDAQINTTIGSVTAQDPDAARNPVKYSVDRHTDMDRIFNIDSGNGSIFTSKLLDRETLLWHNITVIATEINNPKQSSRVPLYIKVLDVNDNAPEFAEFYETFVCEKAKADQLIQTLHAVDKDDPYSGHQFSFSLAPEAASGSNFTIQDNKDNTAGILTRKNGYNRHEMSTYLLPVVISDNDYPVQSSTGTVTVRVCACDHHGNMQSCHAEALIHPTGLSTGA

hCDH6aa54-615 APPavi [2] = target: T3, hCDH6aa54-615 APPavi; assay: SPR binning; remark: listed apart in the source
hCDH6aa54-615 APPavi [3] = target: T3, hCDH6aa54-615 APPavi; assay: SPR binning; remark: listed apart in the source
hCDH6aa54-615 APPavi [4] = target: T3, hCDH6aa54-615 APPavi; assay: SPR binning; remark: listed apart in the source

- EC50 (read off the curve) (cynomolgus CDH6 on cells): ~1 nM
- EC50 (read off the curve) (mouse CDH6 on cells): ~1 nM
- response of secondary antibody on primary antibody-CDH6 complex (hCDH6aa54-615 APPavi [1]): 5.12
- response of secondary antibody on primary antibody-CDH6 complex (hCDH6aa54-615 APPavi [2]): -3.26
- response of secondary antibody on primary antibody-CDH6 complex (hCDH6aa54-615 APPavi [3]): -1.82
- response of secondary antibody on primary antibody-CDH6 complex (hCDH6aa54-615 APPavi [4]): 24.7
B1: NOV0712 (antibody, human IgG1, kappa, V domains shown)
VH: QVQLLESGGGLVQPGGSLRLSCAASGFTFSSHGMHWVRQAPGKGLEWVSVISGSGSNTGYADSVKGRFTISRDNSKNTLYLQMNSLRAEDTAVYYCARQWGSYAFDSWGQGTLVTVSS
VL: DIQMTQSPSSLSASVGDRVTITCRASQSISSYLNWYQQKPGKAPKLLIYAVSTLQSGVPSRFSGSGSGTDFTLTISSLQPEDFATYYCQQSGTFPPTTFGQGTKVEIKR
